How the values were obtained:
trypsin [1] = experiment: enzyme inhibition kinetics (reciprocal plots); trypsin with substrate H-D-Phe-Pip-Arg-pNA (S-2238, 0-2 mM), 50 mM Tris-HCl pH 7.8, 25 °C; Spi1C pre-incubated with the enzyme for 15 min; pNA read at 405 nm; Spi1C at 0, 22.7, 45.4 and 68.1 nmol/L in the Lineweaver-Burk plots
α-chymotrypsin [2] = experiment: enzyme inhibition kinetics (reciprocal plots); α-chymotrypsin with substrate N-benzoyl-tyrosine ethyl ester (BTEE, 0-2 mM), 50 mM Tris-HCl pH 7.8, 25 °C; read at 253 nm; Spi1C at 0, 22.7, 45.4 and 68.1 nmol/L in the Lineweaver-Burk plots
trypsin [3] = molecular target: trypsin
α-chymotrypsin [4] = molecular target: α-chymotrypsin

Ki (trypsin [1]): 15.2 nM | Ki (α-chymotrypsin [2]): 17.9 nM | specific inhibitor activity (inhibition of trypsin activity) (trypsin [3]): 6940 U/mg | specific inhibitor activity (inhibition of α-chymotrypsin activity) (α-chymotrypsin [4]): 3640 U/mg
Substance: recombinant Spi1C protein (natural protein)

From paper PMC3225930
